In paper PMC12618784 one finds ratio to parent data, which are given here for one substance.

Among the targets are Troponin-C; Prohibitin2; ATPsynD, SynO; SesB.
What all share (test): TurboID biotin proximity labelling with mass spectrometry
Holding throughout (conditions): 3rd instar larval muscle tissue (mef2-Gal4); parent: 1

On to “Dmel\Tmem43wt::TurboID (from UniProt Q9VSB9) p.S333L”, for which the ratio to parent is 0.07 in the experiment with Troponin-C; 0.18 with Prohibitin2; 0.3 with ATPsynD, SynO; 0.29 in the experiment with SesB.
